# B1: probe p03 (dsDNA)
# DNA 1: AAAAAAAAAAACGAAAAAAAAAAA
# DNA 2: TTTTTTTTTTTCGTTTTTTTTTTT
# modifications: cytosine states of p03 not given in the material (perhaps C/C)
# B2: mC/fC duplex (dsDNA)
# DNA 1: AAAAAAAAAAACGAAAAAAAAAAA
# DNA 2: TTTTTTTTTTTCGTTTTTTTTTTT
# modifications: 5-methylcytosine at C12 of one strand, 5-formylcytosine at C12 of the other; strand assignment not certain
# B3: mC/hmC duplex (dsDNA)
# DNA 1: AAAAAAAAAAACGAAAAAAAAAAA
# DNA 2: TTTTTTTTTTTCGTTTTTTTTTTT
# modifications: 5-methylcytosine at C12 of one strand, 5-hydroxymethylcytosine at C12 of the other; strand assignment not certain
# B4: hmC/fC duplex (dsDNA)
# DNA 1: AAAAAAAAAAACGAAAAAAAAAAA
# DNA 2: TTTTTTTTTTTCGTTTTTTTTTTT
# modifications: 5-hydroxymethylcytosine at C12 of one strand, 5-formylcytosine at C12 of the other; strand assignment not certain
# B5: p03 hmC/C duplex (dsDNA)
# DNA 1: AAAAAAAAAAACGAAAAAAAAAAA
# DNA 2: TTTTTTTTTTTCGTTTTTTTTTTT
# modifications: 5-hydroxymethylcytosine at C12 of strand 1; strand 2 unmodified (o3115/o2904)
# B6: p06 mC/mC duplex (dsDNA)
# DNA 1: AAAAAAAAAAACGAAAAAAAAAAA
# DNA 2: TTTTTTTTTTTCGTTTTTTTTTTT
# modifications: 5-methylcytosine at C12 of strand 1 and C12 of strand 2 (o2967/o2909)
# B7: p07 hmC/mC duplex (dsDNA)
# DNA 1: AAAAAAAAAAACGAAAAAAAAAAA
# DNA 2: TTTTTTTTTTTCGTTTTTTTTTTT
# modifications: 5-hydroxymethylcytosine at C12 of strand 1; 5-methylcytosine at C12 of strand 2 (o3115/o2909)
# B8: p08 fC/mC duplex (dsDNA)
# DNA 1: AAAAAAAAAAACGAAAAAAAAAAA
# DNA 2: TTTTTTTTTTTCGTTTTTTTTTTT
# modifications: 5-formylcytosine at C12 of strand 1; 5-methylcytosine at C12 of strand 2 (o3116/o2909)
# B9: p10 hmC/hmC duplex (dsDNA)
# DNA 1: AAAAAAAAAAACGAAAAAAAAAAA
# DNA 2: TTTTTTTTTTTCGTTTTTTTTTTT
# modifications: 5-hydroxymethylcytosine at C12 of strand 1 and C12 of strand 2 (o3115/o3112)
# B10: p11 fC/hmC duplex (dsDNA)
# DNA 1: AAAAAAAAAAACGAAAAAAAAAAA
# DNA 2: TTTTTTTTTTTCGTTTTTTTTTTT
# modifications: 5-formylcytosine at C12 of strand 1; 5-hydroxymethylcytosine at C12 of strand 2 (o3116/o3112)
# Legend:
# hMeCP2 MBD [1] = target: hMeCP2 MBD (Homo sapiens, UniProt P51608); experiment: EMSA; poly(dA)-poly(dT) 50 ng/uL; EMSA: 20 mM HEPES pH 7.3, 30 mM KCl, 1 mM EDTA, 10 mM (NH4)2SO4, 1 mM DTT, 0.2% Tween 20, 50 ng/uL poly(dA)-poly(dT), protein diluted in dialysis buffer with 0.1 mg/mL BSA; 2 nM duplex; 20 min at room temperature; gel at 4 C; details: protein: recombinant; tags: N-term SpA(Z)-Factor Xa-TEV, C-term 8xHis; label: 5' 6-FAM on strand 1; blunt
# hMBD4 MBD [2] = target: T1, hMBD4 MBD (Homo sapiens, UniProt O95243); experiment: EMSA; higher than mC/hmC; EMSA: 20 mM HEPES pH 7.3, 30 mM KCl, 1 mM EDTA, 10 mM (NH4)2SO4, 1 mM DTT, 0.2% Tween 20, 50 ng/uL poly(dA)-poly(dT), protein diluted in dialysis buffer with 0.1 mg/mL BSA; 2 nM duplex; 20 min at room temperature; gel at 4 C; details: protein: recombinant; tags: N-term SpA(Z)-Factor Xa-TEV, C-term 8xHis; label: 5' 6-FAM on strand 1; blunt
# hMBD4 MBD [3] = target: T1, hMBD4 MBD; experiment: EMSA; lower than mC/fC; EMSA: 20 mM HEPES pH 7.3, 30 mM KCl, 1 mM EDTA, 10 mM (NH4)2SO4, 1 mM DTT, 0.2% Tween 20, 50 ng/uL poly(dA)-poly(dT), protein diluted in dialysis buffer with 0.1 mg/mL BSA; 2 nM duplex; 20 min at room temperature; gel at 4 C; details: protein: recombinant; tags: N-term SpA(Z)-Factor Xa-TEV, C-term 8xHis; label: 5' 6-FAM on strand 1; blunt
# hMBD4 MBD [4] = target: T1, hMBD4 MBD; experiment: EMSA; new preferred combination; EMSA: 20 mM HEPES pH 7.3, 30 mM KCl, 1 mM EDTA, 10 mM (NH4)2SO4, 1 mM DTT, 0.2% Tween 20, 50 ng/uL poly(dA)-poly(dT), protein diluted in dialysis buffer with 0.1 mg/mL BSA; 2 nM duplex; 20 min at room temperature; gel at 4 C; details: protein: recombinant; tags: N-term SpA(Z)-Factor Xa-TEV, C-term 8xHis; label: 5' 6-FAM on strand 1; blunt
# hMeCP2 MBD [5] = target: hMeCP2 MBD (Homo sapiens, UniProt P51608 90-181); experiment: EMSA; 20 mM HEPES, 30 mM KCl, 1 mM EDTA, 10 mM (NH4)2SO4, pH 7.3, 1 mM DTT, 0.2% Tween 20, 50 ng/uL poly(dA)-poly(dT) trap, 2 nM duplex, protein in dialysis buffer with BSA; 20 min room temperature; gel at 4 C; details: protein: recombinant, label: 5' 6-FAM on strand 1
# Sequence of hMeCP2 MBD (Homo sapiens, UniProt P51608 90-181) (P51608 90-181): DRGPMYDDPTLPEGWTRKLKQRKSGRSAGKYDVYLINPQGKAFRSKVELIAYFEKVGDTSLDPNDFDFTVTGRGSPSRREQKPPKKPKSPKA
# T1 sequence (O95243 76-167): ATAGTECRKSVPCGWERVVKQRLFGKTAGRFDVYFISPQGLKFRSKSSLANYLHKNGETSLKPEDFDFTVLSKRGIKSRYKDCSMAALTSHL
# Sequence of hMeCP2 MBD (Homo sapiens, UniProt P51608) (P51608 90-181): as the sequence (P51608 90-181) above
Binder,Kd (hMeCP2 MBD [5]; blunt) [nM],also measured
B1,,Kd (hMeCP2 MBD [1]): 1080 ± 101 nM
B2,,binding result (hMBD4 MBD [2]): binds
B3,,binding result (hMBD4 MBD [3]): binds
B4,,binding result (hMBD4 MBD [4]): binds
B5,1080 ± 101,
B6,26.6 ± 3.85,
B7,224 ± 24.6,
B8,197 ± 24,
B9,,Kd (hMeCP2 MBD [5]): 967 ± 89.6 nM
B10,541 ± 62.7,

# Source: paper PMC7055227, “Complete Profiling of Methyl-CpG-Binding Domains for Combinations of Cytosine Modifications at CpG Dinucleotides Reveals Differential Read-out in Normal and Rett-Associated States”
